We go through two molecules from US20250154281A1 (Amgen, published 2025).

Substitutions are numbered along the chain they refer to. Names may count otherwise.

For experiment [1], the target named is T1, human STEAP1 (Six Trans-membrane Epithelial Antigen of the Prostate 1) (human, UniProt Q9UHE8 1-339). Briefly: flow cytometry on C4-2B-Luc cells, APC anti-human IgG, MFI. How it is done:
(§1) C4-2B-Luc cells were incubated with increasing concentrations of Ab-A1 XmAb²⁺¹, Ab-A1 Xmab, Ab-B1 Xmab, Ab-Mx1, Ab-Mx2 and Ab-Mx3 up to […], for 1 hour at 4° C. Cell-bound antibodies were detected by flow cytometry after incubation with an APC-conjugated anti-human IgG secondary antibody and mean fluorescence intensity (MFI) of the APC channel at increasing concentrations of respective antibodies tested.

In experiment [2] the target is T1, human STEAP1 (Six Trans-membrane …). Briefly: cell-based or functional assay.
Experiment [3] has the same target. Briefly: cell-based or functional assay. This is another data set of the same source.
For experiment [4] the target is unchanged. Nature of the experiment: flow cytometry on C4-2B-Luc cells. As to the method: as §1
(In general: A flow cytometer gives signals particle by particle.)

Experiment [5] shares this target. Nature of the experiment: flow cytometry on C4-2B luc cells, MFI (repeat experiment). As to the method: The experiment was repeated with Ab-A in various formats (Ab-A (traditional, monospecific antibody, not humanized), Ab-A1 XmAb format, Ab-A1 Xmab²⁺¹ format, and Ab-A2(N67Q) Xmab²⁺¹ format (with N67Q modification)) and Ab-B XmAb format. C4-2B-Luc cells were incubated with increasing concentrations of anti-STEAP1 XmAb or XmAb²⁺¹ molecules up to […], for one hour at 4° C. […] Results are shown in FIGS. 12A-12C and FIG. 13 and Table 4 below.

For experiment [6], the target named is T2, recombinant human CD3ε-Fc (human, UniProt P07766 23-126).
T2 construct: also called human CD3E-Fc; not shown: Fc part
T2 sequence (P07766 23-126 limits assumed): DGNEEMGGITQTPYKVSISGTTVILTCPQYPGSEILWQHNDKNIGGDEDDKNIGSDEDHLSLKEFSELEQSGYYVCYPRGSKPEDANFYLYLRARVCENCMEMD
Nature of the experiment: ^b data generated using Octet.

Experiment [7] has as its target T3, recombinant cynomolgus CD3ε-Fc (cynomolgus, UniProt Q95LI5 22-117, limits assumed).
T3 construct: not shown: Fc part
T3 sequence (looked up): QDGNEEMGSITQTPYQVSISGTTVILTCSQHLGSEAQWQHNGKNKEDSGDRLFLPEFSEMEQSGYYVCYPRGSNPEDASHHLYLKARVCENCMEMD
Briefly: ^b data generated using Octet. For orientation: BLI is a label-free optical method that tracks binding on a fibre tip over time.

Experiment [8] addresses T2, recombinant human CD3ε-Fc. Nature of the experiment: SPR, CD3ε-Fc immobilized on CM5 chip; ^a data generated using BIAcore. As to the method:
(§2) Recombinant human CD3E-Fc and cynomolgus CD3ε-Fc were immobilized on a CM5 chip surface using standard amine coupling procedure at ˜60 RU. Ab-A2(N67Q) XmAb²⁺¹ was injected concentrations of 100, 33.3, 11.1 and 3.7 nM. The association and dissociation rates of Ab-A2(N67Q) XmAb²⁺¹ interaction to the ligands were recorded for 120 sec and 300 sec, respectively, as set forth below in Table 8. The equilibrium dissociation constant (KD) values were derived as a ratio of the dissociation rate constant and the association rate constant (koff/kₒₙ).
(In general: In SPR one partner is held on a chip, and binding of the other changes the refractive index at the surface.)

The target of experiment [9] is T3, recombinant cynomolgus CD3ε-Fc. The experiment is described as above. As to the method: as §2
Experiment [10] addresses T1, human STEAP1 (Six Trans-membrane …). Nature of the experiment: cell-based or functional assay. The source holds these as a separate data set.
The target is the same in experiment [11]. Nature of the experiment: cell-based or functional assay. The source holds these as a separate data set.
Experiment [12] has the same target. Nature of the experiment: cell-based or functional assay. The source holds these as a separate data set.

T1 sequence (Q9UHE8 whole entry): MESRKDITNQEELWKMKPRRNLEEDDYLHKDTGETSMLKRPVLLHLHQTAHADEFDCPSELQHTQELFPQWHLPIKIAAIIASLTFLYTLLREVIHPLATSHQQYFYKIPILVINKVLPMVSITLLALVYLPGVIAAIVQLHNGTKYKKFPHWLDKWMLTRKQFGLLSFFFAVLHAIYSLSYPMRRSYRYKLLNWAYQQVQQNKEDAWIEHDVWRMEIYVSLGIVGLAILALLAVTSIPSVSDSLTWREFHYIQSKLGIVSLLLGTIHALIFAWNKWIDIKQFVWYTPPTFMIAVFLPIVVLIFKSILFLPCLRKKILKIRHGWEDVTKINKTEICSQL

B1: Ab-A1 XmAb^2+1 (humanized anti-STEAP1/anti-CD3 heterodimeric antibody) (bispecific antibody)
heavy 1: QVQLVQSGAEVKKPGASVKVSCKASGYTFSTYWIEWVRQAPGQRLEWMGEILPGSGNTDFNEKFQGRVTFTADTSSDTAYMELSSLRSEDTAVYYCTRWGYYGTRGYFNVWGQGTLVTVSSASTKGPSVFPLAPSSKSTSGGTAALGCLVKDYFPEPVTVSWNSGALTSGVHTFPAVLQSSGLYSLSSVVTVPSSSLGTQTYICNVNHKPSNTKVDKKVEPKSCGGGGSGGGGSEVQLVESGGGLVQPGGSLRLSCAASGFTFSTYAMNWVRQAPGKGLEWVGRIRSKYNNYATYYADSVKGRFTISRDDSKNTLYLQMNSLRAEDTAVYYCVRHGNFGDSYVSWFAYWGQGTLVTVSSGKPGSGKPGSGKPGSGKPGSQAVVTQEPSLTVSPGGTVTLTCGSSTGAVTTSNYANWVQQKPGKSPRGLIGGTNKRAPGVPARFSGSLLGGKAALTISGAQPEDEADYYCALWYSNHWVFGGGTKLTVLGGGGSGGGGSKTHTCPPCPAPPVAGPSVFLFPPKPKDTLMISRTPEVTCVVVDVKHEDPEVKFNWYVDGVEVHNAKTKPREEQYNSTYRVVSVLTVLHQDWLNGKEYKCKVSNKALPAPIEKTISKAKGQPREPQVYTLPPSREQMTKNQVKLTCLVKGFYPSDIAVEWESNGQPENNYKTTPPVLDSDGSFFLYSKLTVDKSRWQQGNVFSCSVMHEALHNHYTQKSLSLSPGK
heavy 2: QVQLVQSGAEVKKPGASVKVSCKASGYTFSTYWIEWVRQAPGQRLEWMGEILPGSGNTDFNEKFQGRVTFTADTSSDTAYMELSSLRSEDTAVYYCTRWGYYGTRGYFNVWGQGTLVTVSSASTKGPSVFPLAPSSKSTSGGTAALGCLVKDYFPEPVTVSWNSGALTSGVHTFPAVLQSSGLYSLSSVVTVPSSSLGTQTYICNVNHKPSDTKVDKKVEPKSCDKTHTCPPCPAPPVAGPSVFLFPPKPKDTLMISRTPEVTCVVVDVKHEDPEVKFNWYVDGVEVHNAKTKPREEEYNSTYRVVSVLTVLHQDWLNGKEYKCKVSNKALPAPIEKTISKAKGQPREPQVYTLPPSREEMTKNQVSLTCDVSGFYPSDIAVEWESDGQPENNYKTTPPVLDSDGSFFLYSKLTVDKSRWEQGDVFSCSVMHEALHNHYTQKSLSLSPGK
light: EIVLTQSPATLSLSPGERATLSCRASSSVSYMHWFQQKPGQAPRLLIYSTSNLASGIPARFSGSGSGTDYTLTISSLEPEDFAVYYCQQRRSFPYTFGQGTKLEIKRTVAAPSVFIFPPSDEQLKSGTASVVCLLNNFYPREAKVQWKVDNALQSGNSQESVTEQDSKDSTYSLSSTLTLSKADYEKHKVYACEVTHQGLSSPVTKSFNRGEC
notes: XmAb^2+1 format: first monomer VH-CH1-(anti-CD3 scFv)-Fc, second monomer VH-CH1-Fc, common light chain; two STEAP1 Fabs and one CD3 scFv; monomers 19 or 20 / 18 or 199 / light 17; scFv 44; also called XmAb^2+1 Ab-A1; copies: 1 + 1 + 2
One may read the EC50 as the concentration that produces a half-maximal response. On to B1, for which the EC50 in [1] and in experiment [5] was 2200 pM throughout. For the same molecule, in experiment [2], the “TDCC EC50” value is 6 pM. Moreover, the “TDCC EC50, C4-2B luc cells” value in experiment [3] came out at 6.3 pM. Further, the “fold lower binding EC50 than Ab-A1 Xmab” value in experiment [4] was determined as 65 fold.

B2: Ab-A2(N67Q) XmAb^2+1 (variant of Ab-A1 XmAb^2+1 having a N67Q modification) (bispecific antibody)
heavy 1: B1 heavy 1 with N57Q, R568C, N573G, V578C
heavy 2: B1 heavy 2 with N57Q, R295C, N300G, V305C
light: B1 light
notes: XmAb^2+1 format (two STEAP1 Fabs, one anti-CD3 scFv); monomers 19 or 20 / 18 or 199 / light 17; scFv 44; also called Ab-A2 XmAb^2+1; copies: 1 + 1 + 2
One may read the Kd as the concentration at which binding is half-saturated. As for B2, the “TDCC EC50, C4-2B luc cells” value in [3] came to 5.4 pM. For the same molecule, the equilibrium dissociation constant (Kd) in experiment [6] turned out to be 27600 pM. Further, in experiment [7], the Kd amounted to 25800 pM. Also, in [8], the dissociation constant Kd amounted to 16300 pM. In experiment [9], the Kd is 15100 pM. In addition, in experiment [10], the “TDCC EC50, 22RV-1 cells” value was 257 pM; the “TDCC EC50, C4-2B cells” value was 6.8 pM; the “TDCC EC50, HBSMC cells” value amounted to 1520 pM; the “TDCC EC50, HCT116 cells” value came out at 336 pM. In experiment [10], the “TDCC EC50, HUCCT1 cells” value is above 10000 pM; the “TDCC EC50, IM-95 cells” value is 345 pM; the “TDCC EC50, LOX-IMVI cells” value came out at 36.6 pM; the “TDCC EC50, NCIH1869 cells” value is above 10000 pM. Further, in experiment [10], the “TDCC EC50, PC3 cells” value was above 10000 pM; the “TDCC EC50, SK-N-MC cells” value came out at 10.4 pM; the “TDCC EC50, SNU5 cells” value amounted to 6.2 pM; the “TDCC EC50, TYKNU cells” value was found to be 1720 pM. In [10], the “TDCC EC50, VCaP cells” value was 722 pM. In experiment [11], the “TDCC EC50, A673 cells” value worked out at 122 pM; the “TDCC EC50, EBC1 cells” value is 162 pM; the “TDCC EC50, OE33 cells” value was found to be 145 pM. In [5], this molecule came in with an EC50 of 1200 pM. Also, in [12], the “TDCC EC50, 293T cells stably transfected with human STEAP1” value came to 0.1 pM.
